According to paper PMC12454647:

Experiments:
[1] = target: BdhE (bifunctional dehydrogenase E) from Halomonas eurihalina (Halomonas eurihalina); assay: native gel or EMSA; blue native PAGE, 3-14% polyacrylamide gradient, 150 V for ~75 minutes; purified AdhE 5 or 10 ug, BdhE 1 or 2 ug
[2] = target: BdhE (bifunctional dehydrogenase E) from Halomonas eurihalina (Halomonas eurihalina); assay: cryo-EM structure; single particle analysis, 2.02 mg/mL AdhE or 1.35 mg/mL BdhE, no cofactors added, Talos Arctica 200 kV, CryoSPARC

BdhE (bifunctional dehydrogenase E) from Halomonas eurihalina (enzyme)
stoichiometry N [1]: 4 | stoichiometry N [2]: 4
